In test [1] the test system is ApPPO1. The test can be described thus: PPO enzyme activity of purified MBP-fused ApPPO1 wild type and variants. The test is classed as biochemical, Auxenochlorella protothecoides. To be noted: PPO enzyme activity relative to ApPPO1 wild type; MBP-fused protein. As to the method:
Thus, PPO proteins of wild type and variants were expressed as fused to MBP and were used for experiments.
The following process for purification of PPO protein was performed in a 4° C. cold room. […] The column was washed with 3 column volumes of buffer and the presence of protein in the washing solution was examined. When the protein was no longer detected, the washing procedure was terminated. Then, the MBP-PPO protein was eluted with approximately 2 column volumes of buffer containing 20 mM maltose. The protein concentration of each eluent was determined and the elution was stopped when the protein was no longer detected. Ten microliter of each fraction was investigated for protein quantification and SDS-PAGE analysis. The highly pure fractions of PPO protein variants were used for the enzyme assay.
Since protoporphyrinogen IX, a substrate of PPO protein, was not commercially available, it was chemically synthesized in the laboratory. Overall process was performed in dark under nitrogen stream. […] of protoporphyrin IX was dissolved in 20 ml of 20% (v/v) EtOH, and stirred under dark condition for 30 minutes. The obtained protoporphyrin IX solution was put into a 15 ml screw tube in an amount of 800 μl, and flushed with nitrogen gas for 5 minutes. To this, 1.5 g of sodium amalgam was added and vigorously shaken for 2 minutes. The lid was opened to exhaust hydrogen gas in the tube. Thereafter, the lid was closed and incubated for 3 minutes. The protoporphyrinogen IX solution was filtered using syringe and cellulose membrane filter. To 600 μl of the obtained protoporphyrinogen IX solution, approximately 300 μl of 2M MOPS [3-(N-morpholino) propanesulfonic acid] was added to adjust pH to 8.0. To determine the enzyme activity of PPO protein, a reaction mixture was prepared with the following composition (based on 10 ml): 50 mM Tris-Cl (pH 8.0); 50 mM NaCl; 0.04% (v/v) Tween 20; 40 mM glucose (0.072 g); 5 units glucose oxidase (16.6 mg); and 10 units catalase (1 μl).
Hundred and eighty microliters of a reaction mixture […] were placed in 96 well plates and 20 μl of purified PPO proteins were added. After 50 μl of the mineral oil was layered, the reaction was initiated by adding the substrate, protoporphyrinogen IX solution, to a final concentration of 50 μM. The reaction proceeded at room temperature for 30 min and the fluorescence of protoporphyrin IX was measured using Microplate reader (Sense, Hidex) (excitation: 405 nm; emission: 633 nm). To calculate the PPO enzyme activity, the protoporphyrinogen IX solution was kept open in the air overnight to oxidize the solution. To this, 2.7 N HCl was added, and the absorbance at 408 nm was measured. A standard curve was generated using standard protoporphyrin IX, and PPO activity was measured by calibration of protoporphyrin IX using the standard curve of protoporphyrin IX.
Activities of variants were presented relatively compared to that of wild type.

The subject of test [2] is ApPPO1. The test is described as follows: Herbicide tolerance test of ApPPO1 wild type and variants in PPO-deficient E. coli BT3(ΔPPO), growth on herbicide-containing LB agar. It counts as cell-based, Auxenochlorella protothecoides. Conditions: relative to ApPPO1 WT; for Herbicide tolerance, tiafenacil: up to 200 μM (FIGS. 7-12). As to the method: Then, the extent of tolerance was evaluated.

[3] abbreviates: dark, up to 100 μM (FIGS. 7-12).
Setting [4] is: dark, up to 400 μM (FIGS. 7-12).

Changes are numbered by the printed parent chain. Names and notes keep the numbering of the source.

B1: A215L: ApPPO1 (SEQ ID NO: 1) variant (protein)
chain: MPFTHLKPLNRLLGSPRARHPHVAPQAVSVTNTSTTRPGGRSSAPGIPGDAEYDVVIVGAGISGLTTAQALAKQYSDAVPRLLVTEARDCVGGNIITRRDGGYQWEEGPNSFQPSDAVLRAAVDAGVADRLVLGDPKAPRYVYWGGRLRATPSGPDVLTFDLLSLWGKLRAGLGAAGFKAPLPEREESVKEFVTRNLGEEVFQRLIEPFCSGVYLGDPAKLSMKAAFGKVYDLEKGGGSIVGGVLALMKARKQKPPEPRPADLPPKPKGQTVGSFDKGLVTLPSAIAEELGDRVVTGWKLESIDRSGDRFQLTYDTPQGRKKVSARSVALTVPAYTAASLLESRFPKLGKALSSIYYPPVASVALSYPETAILPERLGSDGHLAGFGQLHPRTQGVTTLGTIYASSLFPGRVPEGKVLLLSYFGGATNTRVATMPHGEIVSQVDKDLRKMLIRSDAESPHTVNVTVWPRAIPQFNVGHTDLIQEAKDDLASQGWQGLHLGGNYVAGVALGKCMEAGYKQAAELASHVKSLAT
modifications: Synthetic (Protoporphyrinogen IX oxidase (ApPPO1) of Auxenochlorella protothecoides)
Regarding B1, the “Activity (%)” value in test [1] came to 76%. Further, the “Herbicide tolerance, pentoxazone” value in test [2] (light, up to 10 μM (FIG. 5)) is recorded as “++ (10-99 fold higher tolerance)”. In test [2] (light, up to 10 μM (FIG. 6)), the “Herbicide tolerance, pyraflufenethyl” value is on record as “+++ (100-999 fold higher tolerance)”. Further, in test [2] (light, up to 25 μM (FIG. 3)), the “Herbicide tolerance, sulfentrazone” value is listed as “+++ (100-999 fold higher tolerance)”. Moreover, in test [2] (light, up to 25 μM (FIG. 4)), the “Herbicide tolerance, Fomesafen” value was “+++ (100-999 fold higher tolerance)” and the “Herbicide tolerance, acifluorfen” value is on record as “+++ (100-999 fold higher tolerance)”. In test [2] (light, up to 100 μM (FIG. 2)), the “Herbicide tolerance, saflufenacil” value is “++++ (1,000-9,999 fold higher tolerance)”. Besides, the “Herbicide tolerance, flumioxazin” value in test [2] (light, up to 200 μM (FIG. 3)) is “++++ (1,000-9,999 fold higher tolerance)”.

B2: A215L + Y422M: ApPPO1 (SEQ ID NO: 1) variant (protein)
chain: B1 chain with Y422M
modifications: Synthetic (Protoporphyrinogen IX oxidase (ApPPO1) of Auxenochlorella protothecoides)
Consider B2, for which the “Activity (%)” value in test [1] is given as 34%. Further, the “Herbicide tolerance, flumioxazin” value in test [2] (setting [3]) is given as “+++++ (more than 10,000 fold higher tolerance)”. In test [2] (dark), the “Herbicide tolerance, tiafenacil” value was “+++++ (more than 10,000 fold higher tolerance)”. Besides, the “Herbicide tolerance, sulfentrazone” value in test [2] (setting [4]) is recorded as “++++ (1,000-9,999 fold higher tolerance)”.

B3: V360I + Y422I: ApPPO1 (SEQ ID NO: 1) variant (protein)
chain: B1 chain with L215A, V360I, Y422I
modifications: Synthetic (Protoporphyrinogen IX oxidase (ApPPO1) of Auxenochlorella protothecoides)
For B3, the “Activity (%)” value in test [1] is listed as 16%.

B4: R140A + Y422M: ApPPO1 (SEQ ID NO: 1) variant (protein)
chain: B1 chain with R140A, L215A, Y422M
modifications: Synthetic (Protoporphyrinogen IX oxidase (ApPPO1) of Auxenochlorella protothecoides)
Turning to B4, in test [1], the “Activity (%)” value is recorded as 29%. Moreover, the “Herbicide tolerance, flumioxazin” value in test [2] (setting [3]) was “++++ (1,000-9,999 fold higher tolerance)”. For the same molecule, the “Herbicide tolerance, tiafenacil” value in test [2] (dark) was “++++ (1,000-9,999 fold higher tolerance)”. In addition, in test [2] (setting [4]), the “Herbicide tolerance, sulfentrazone” value is on record as “++++ (1,000-9,999 fold higher tolerance)”.

B5: I402T + Y422M: ApPPO1 (SEQ ID NO: 1) variant (protein)
chain: B1 chain with L215A, I402T, Y422M
modifications: Synthetic (Protoporphyrinogen IX oxidase (ApPPO1) of Auxenochlorella protothecoides)
With B5, the “Activity (%)” value in test [1] came to 21%.

B6: L389T + Y422M: ApPPO1 (SEQ ID NO: 1) variant (protein)
chain: B1 chain with L215A, L389T, Y422M
modifications: Synthetic (Protoporphyrinogen IX oxidase (ApPPO1) of Auxenochlorella protothecoides)
Take B6: the “Activity (%)” value in test [1] is given as 15%.

B7: S362V + Y422I: ApPPO1 (SEQ ID NO: 1) variant (protein)
chain: B1 chain with L215A, S362V, Y422I
modifications: Synthetic (Protoporphyrinogen IX oxidase (ApPPO1) of Auxenochlorella protothecoides)
For B7, the “Activity (%)” value in test [1] turned out to be 21%.

B8: A215C + Y422M: ApPPO1 (SEQ ID NO: 1) variant (protein)
chain: B1 chain with L215C, Y422M
modifications: Synthetic (Protoporphyrinogen IX oxidase (ApPPO1) of Auxenochlorella protothecoides)
In the case of B8, in test [1], the “Activity (%)” value worked out at 58%. The “Herbicide tolerance, flumioxazin” value in test [2] (setting [3]) is given as “+++++ (more than 10,000 fold higher tolerance)”. For the same molecule, the “Herbicide tolerance, tiafenacil” value in test [2] (dark) was “+++++ (more than 10,000 fold higher tolerance)”. Further, in test [2] (setting [4]), the “Herbicide tolerance, sulfentrazone” value is “++++ (1,000-9,999 fold higher tolerance)”.

B9: V213C + Y422M: ApPPO1 (SEQ ID NO: 1) variant (protein)
chain: B1 chain with V213C, L215A, Y422M
modifications: Synthetic (Protoporphyrinogen IX oxidase (ApPPO1) of Auxenochlorella protothecoides)
B9: in test [1], the “Activity (%)” value is 29%. The “Herbicide tolerance, flumioxazin” value in test [2] (setting [3]) is listed as “+++ (100-999 fold higher tolerance)”. The “Herbicide tolerance, tiafenacil” value in test [2] (dark) is listed as “+++++ (more than 10,000 fold higher tolerance)”. For the same molecule, the “Herbicide tolerance, sulfentrazone” value in test [2] (setting [4]) was “++ (10-99 fold higher tolerance)”.

B10: R140A: ApPPO1 (SEQ ID NO: 1) variant (protein)
chain: B1 chain with R140A, L215A
modifications: Synthetic (Protoporphyrinogen IX oxidase (ApPPO1) of Auxenochlorella protothecoides)
Take B10: the “Activity (%)” value in test [1] worked out at 88%.

For the origin of these results see patent US20220042033A1, “COMPOSITION AND METHOD FOR CONFERRING AND/OR ENHANCING TOLERANCE AGAINST HERBICIDES BY USING VARIANTS OF PPO” (FarmHannong Co., Ltd., priority 2017, published 2022).
